Test results from publication PMC10160006 (Nature chemical biology, 2023).

T1: EXT1-pGEn1 (human EXT1 residues 28-746 with N-terminal His8 and StrepII tag) (human, UniProt Q16394 28-746)
T1 sequence (looked up): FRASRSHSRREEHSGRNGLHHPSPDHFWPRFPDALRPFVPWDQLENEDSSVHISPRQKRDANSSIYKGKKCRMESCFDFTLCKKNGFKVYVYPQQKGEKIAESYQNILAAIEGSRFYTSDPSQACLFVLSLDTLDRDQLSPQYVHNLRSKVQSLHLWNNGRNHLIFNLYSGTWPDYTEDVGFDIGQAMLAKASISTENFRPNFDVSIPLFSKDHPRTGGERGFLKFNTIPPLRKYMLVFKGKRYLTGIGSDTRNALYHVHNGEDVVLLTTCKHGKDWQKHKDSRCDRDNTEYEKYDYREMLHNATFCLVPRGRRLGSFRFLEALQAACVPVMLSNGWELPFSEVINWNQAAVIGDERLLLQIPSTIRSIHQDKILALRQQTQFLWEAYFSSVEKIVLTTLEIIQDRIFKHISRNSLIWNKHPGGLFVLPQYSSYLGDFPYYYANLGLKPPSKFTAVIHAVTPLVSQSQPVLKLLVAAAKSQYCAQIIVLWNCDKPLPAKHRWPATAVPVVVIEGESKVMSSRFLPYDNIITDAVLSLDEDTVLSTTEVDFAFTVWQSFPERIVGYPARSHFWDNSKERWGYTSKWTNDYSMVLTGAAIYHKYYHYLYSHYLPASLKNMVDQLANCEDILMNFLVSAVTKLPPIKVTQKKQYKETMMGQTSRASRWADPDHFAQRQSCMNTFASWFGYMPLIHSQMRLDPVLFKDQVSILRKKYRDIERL

B1: human EXT2 (residues 46-718), fusion tags removed by TEV protease (enzyme, UniProt Q93063 46-718, looked up)
chain: WPHSIESSNDWNVEKRSIRDVPVVRLPADSPIPERGDLSCRMHTCFDVYRCGFNPKNKIKVYIYALKKYVDDFGVSVSNTISREYNELLMAISDSDYYTDDINRACLFVPSIDVLNQNTLRIKETAQAMAQLSRWDRGTNHLLFNMLPGGPPDYNTALDVPRDRALLAGGGFSTWTYRQGYDVSIPVYSPLSAEVDLPEKGPGPRQYFLLSSQVGLHPEYREDLEALQVKHGESVLVLDKCTNLSEGVLSVRKRCHKHQVFDYPQVLQEATFCVVLRGARLGQAVLSDVLQAGCVPVVIADSYILPFSEVLDWKRASVVVPEEKMSDVYSILQSIPQRQIEEMQRQARWFWEAYFQSIKAIALATLQIINDRIYPYAAISYEEWNDPPAVKWGSVSNPLFLPLIPPQSQGFTAIVLTYDRVESLFRVITEVSKVPSLSKLLVVWNNQNKNPPEDSLWPKIRVPLKVVRTAENKLSNRFFPYDEIETEAVLAIDDDIIMLTSDELQFGYEVWREFPDRLVGYPGRLHLWDHEMNKWKYESEWTNEVSMVLTGAAFYHKYFNYLYTYKMPGDIKNWVDAHMNCEDIAMNFLVANVTGKAVIKVTPRKKFKCPECTAIDGLSLDQTHMVERSECINKFASVFGTMPLKVVEHRADPVLYKDDFPEKLKSFPNIGSL
modifications: N-glycan on Asn637
B2: human EXT1 (residues 28-746), fusion tags removed by TEV protease (enzyme, UniProt Q16394 28-746, looked up)
chain: T1 sequence (looked up)
modifications: NAG at Asn330
B3: EXT2-pGEn2 (human EXT2 residues 46-718 with N-terminal His8, AviTag and GFP) (enzyme, UniProt Q93063 46-718, looked up)
chain: B1 chain

Tests used:
[1] = biological target: B2; experiment: cryo-EM structure
[2] = biological target: B1; experiment: cryo-EM structure
[3] = biological target: T1, EXT1-pGEn1 (human EXT1 residues 28-746 …); experiment: SEC-MALS

B1
binding result [1]: binds

B2
stoichiometry N [2]: 1 EXT1:EXT2

B3
binding result [3]: binds
